This note sets out measurements from PMC4780012, “SmMYC2a and SmMYC2b played similar but irreplaceable roles in regulating the biosynthesis of tanshinones and phenolic acids in Salvia miltiorrhiza”.

For series [1], the target named is SmMYC2a-His (Salvia miltiorrhiza, UniProt A0A088SC56 1-602). The series can be described thus: EMSA; EMSA: 2 ug purified protein with 2 ug 3'-biotin probe, room temperature, 10 min; buffer, salt and pH not stated. To be noted: protein: recombinant; tags: His (text: C-terminal, cleavable; pET32a vector, BamHI/HindIII); chain copies: 2; label: 3' biotin; blunt.
Series [2] has as its target SmMYC2b-His (Salvia miltiorrhiza, UniProt UPI0025AD73A7 1-607). Described as above. To be noted: protein: recombinant; tags: His (text: C-terminal, cleavable; pET32a vector, EcoRV/SalI); chain copies: 2; label: 3' biotin; blunt.

Chain of SmMYC2a-His (A0A088SC56 entry or part of it): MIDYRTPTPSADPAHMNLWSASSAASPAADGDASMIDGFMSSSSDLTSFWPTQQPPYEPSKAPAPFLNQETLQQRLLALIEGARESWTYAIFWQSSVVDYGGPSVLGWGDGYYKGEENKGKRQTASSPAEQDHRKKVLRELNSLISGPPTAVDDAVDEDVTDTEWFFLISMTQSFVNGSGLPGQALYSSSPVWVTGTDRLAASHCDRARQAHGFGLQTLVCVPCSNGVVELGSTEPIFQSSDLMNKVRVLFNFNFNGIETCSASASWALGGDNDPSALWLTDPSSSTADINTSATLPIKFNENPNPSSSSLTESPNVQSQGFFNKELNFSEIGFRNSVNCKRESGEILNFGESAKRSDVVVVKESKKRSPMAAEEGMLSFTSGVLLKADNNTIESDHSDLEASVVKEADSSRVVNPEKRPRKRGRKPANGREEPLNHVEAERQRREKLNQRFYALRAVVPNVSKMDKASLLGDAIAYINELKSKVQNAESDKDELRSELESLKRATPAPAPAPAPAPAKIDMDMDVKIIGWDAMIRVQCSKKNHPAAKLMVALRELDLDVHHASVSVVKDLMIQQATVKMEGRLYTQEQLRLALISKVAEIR
Chain of SmMYC2b-His (chain, as listed by the source): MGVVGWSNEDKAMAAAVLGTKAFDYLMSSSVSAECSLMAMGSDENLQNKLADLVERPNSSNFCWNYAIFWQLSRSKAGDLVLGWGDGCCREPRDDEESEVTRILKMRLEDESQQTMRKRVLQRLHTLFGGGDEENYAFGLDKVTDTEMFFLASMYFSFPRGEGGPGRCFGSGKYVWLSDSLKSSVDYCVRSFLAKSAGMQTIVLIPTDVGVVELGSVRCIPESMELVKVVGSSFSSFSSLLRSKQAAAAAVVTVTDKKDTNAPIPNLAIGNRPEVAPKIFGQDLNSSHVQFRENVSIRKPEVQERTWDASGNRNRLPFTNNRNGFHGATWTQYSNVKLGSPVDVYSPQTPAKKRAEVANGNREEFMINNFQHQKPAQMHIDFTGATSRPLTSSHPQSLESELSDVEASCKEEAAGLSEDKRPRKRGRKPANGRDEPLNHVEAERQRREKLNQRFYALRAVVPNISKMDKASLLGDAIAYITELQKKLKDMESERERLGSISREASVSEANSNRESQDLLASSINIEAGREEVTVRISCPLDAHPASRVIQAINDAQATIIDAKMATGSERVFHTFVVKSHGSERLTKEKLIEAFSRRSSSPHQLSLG

B1: Wild-type CYP98A14 (dsDNA)
DNA 1: ATTAGTGATTAACACGTGCACATTTATTAA
DNA 2: TTAATAAATGTGCACGTGTTAATCACTAAT
Regarding B1, the binding result in series [1] and in series [2] was “binds” in each case.

B2: m-HCT6 (dsDNA)
DNA 1: AAGCCTAAAGCTTTTTTTGCTGCTAAACCT
DNA 2: AGGTTTAGCAGCAAAAAAAGCTTTAGGCTT
For B2, the binding result in series [1] is “no binding”.

B3: Wild-type HCT6 (dsDNA)
DNA 1: AAGCCTAAAGCTCACATGGCTGCTAAACCT
DNA 2: AGGTTTAGCAGCCATGTGAGCTTTAGGCTT
Take B3: the binding result in series [1] is listed as “binds”.
